Test results: patent US20240261333A1, “NOVEL TARGETS FOR ENHANCING ANTI-TUMOR IMMUNITY” (THE BROAD INSTITUTE, INC., priority 2021, published 2024)

Assays:
RPS23 = RPS23 (UniProt P62266); test: co-IP, IgG control, N-FLAG B3GNT2 cell lysate, mass spectrometry
RPS8 = RPS8 (UniProt P62241); test: as above
SRSF3 = SRSF3 (UniProt P84103); test: as above
DDX20 = DDX20 (UniProt Q9UHI6); test: as above
PBXIP1 = PBXIP1 (UniProt Q96AQ6); test: as above
SRSF1 = SRSF1 (UniProt Q07955); test: as above
DNAJA2 = DNAJA2 (UniProt O60884); test: as above
RPL3 = RPL3 (UniProt P39023); test: as above
HSP90AB1 (human) = HSP90AB1 (human) (UniProt P08238); test: anti-FLAG co-IP from lysate of C-FLAG B3GNT2 cells, mass spectrometry
SFXN3 (human) = SFXN3 (human) (UniProt Q9BWM7); test: as above
PDIA4 (human) = PDIA4 (human) (UniProt P13667); test: as above
PXN (human) = PXN (human) (UniProt P49023); test: as above
TECR (human) = TECR (human) (UniProt Q9NZ01); test: as above
FBXO6 (human) = FBXO6 (human) (UniProt Q9NRD1); test: as above
UBTF (human) = UBTF (human) (UniProt P17480); test: as above
ABCD1 (human) = ABCD1 (human) (UniProt P33897); test: as above
SLC25A22 (human) = SLC25A22 (human) (UniProt Q9H936); test: as above
HDGFL2 (human) = HDGFL2 (human) (UniProt Q7Z4V5); test: as above
KPNB1 (human) = KPNB1 (human) (UniProt Q14974); test: as above
RRBP1 (human) = RRBP1 (human) (UniProt Q9P2E9); test: as above
ERP44 (human) = ERP44 (human) (UniProt Q9BS26); test: as above
RPL34 (human) = RPL34 (human) (UniProt P49207); test: as above
PSMB6 (human) = PSMB6 (human) (UniProt P28072); test: as above
NTPCR (human) = NTPCR (human) (UniProt Q9BSD7); test: as above
DNAJA3 (human) = DNAJA3 (human) (UniProt Q96EY1); test: as above
LARP4 (human) = LARP4 (human) (UniProt Q71RC2); test: as above
RCN1 (human) = RCN1 (human) (UniProt Q15293); test: as above
RPS6 (human) = RPS6 (human) (UniProt P62753); test: as above
PGAM5 (human) = PGAM5 (human) (UniProt Q96HS1); test: as above
EEF2 (human) = EEF2 (human) (UniProt P13639); test: as above
LDHA (human) = LDHA (human) (UniProt P00338); test: as above
ACSL3 (human) = ACSL3 (human) (UniProt O95573); test: as above
STAU1 (human) = STAU1 (human) (UniProt O95793); test: as above
AIFM1 (human) = AIFM1 (human) (UniProt O95831); test: as above
IPO7 (human) = IPO7 (human) (UniProt O95373); test: as above
RPL15 (human) = RPL15 (human) (UniProt P61313); test: as above
ELOC (human) = ELOC (human) (UniProt Q15369); test: as above
ATAD3A (human) = ATAD3A (human) (UniProt Q9NVI7); test: as above

NTPCR (human), sequence (Q9BSD7 2-190 limits assumed): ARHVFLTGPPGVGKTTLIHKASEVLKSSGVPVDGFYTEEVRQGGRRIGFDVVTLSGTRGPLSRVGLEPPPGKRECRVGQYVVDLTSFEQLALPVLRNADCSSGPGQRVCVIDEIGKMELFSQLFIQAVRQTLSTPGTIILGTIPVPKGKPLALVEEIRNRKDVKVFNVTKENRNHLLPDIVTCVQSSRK
KPNB1 (human), sequence (Q14974 whole entry): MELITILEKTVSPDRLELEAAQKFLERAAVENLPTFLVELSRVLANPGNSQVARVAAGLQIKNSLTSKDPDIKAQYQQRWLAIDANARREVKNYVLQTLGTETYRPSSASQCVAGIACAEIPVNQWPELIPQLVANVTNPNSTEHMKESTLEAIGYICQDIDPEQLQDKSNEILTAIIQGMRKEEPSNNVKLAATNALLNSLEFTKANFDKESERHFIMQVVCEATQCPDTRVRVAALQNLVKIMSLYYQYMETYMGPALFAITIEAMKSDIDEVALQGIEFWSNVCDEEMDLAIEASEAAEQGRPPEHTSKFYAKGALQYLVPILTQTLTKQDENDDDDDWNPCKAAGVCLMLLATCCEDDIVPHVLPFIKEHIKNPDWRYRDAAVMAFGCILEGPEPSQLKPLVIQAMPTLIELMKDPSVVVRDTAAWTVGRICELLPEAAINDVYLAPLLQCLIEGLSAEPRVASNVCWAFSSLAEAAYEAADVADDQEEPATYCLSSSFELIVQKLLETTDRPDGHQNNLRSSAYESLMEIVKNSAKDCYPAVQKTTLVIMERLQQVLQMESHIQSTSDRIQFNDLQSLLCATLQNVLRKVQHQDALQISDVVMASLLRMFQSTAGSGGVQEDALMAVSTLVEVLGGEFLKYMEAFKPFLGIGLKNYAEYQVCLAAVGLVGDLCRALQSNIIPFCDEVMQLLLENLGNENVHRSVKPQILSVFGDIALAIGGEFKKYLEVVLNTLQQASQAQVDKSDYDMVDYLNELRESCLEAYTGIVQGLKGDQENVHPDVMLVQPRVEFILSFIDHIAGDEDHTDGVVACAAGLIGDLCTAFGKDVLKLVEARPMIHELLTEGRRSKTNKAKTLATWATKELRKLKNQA
PDIA4 (human), sequence (P13667 21-645 limits assumed): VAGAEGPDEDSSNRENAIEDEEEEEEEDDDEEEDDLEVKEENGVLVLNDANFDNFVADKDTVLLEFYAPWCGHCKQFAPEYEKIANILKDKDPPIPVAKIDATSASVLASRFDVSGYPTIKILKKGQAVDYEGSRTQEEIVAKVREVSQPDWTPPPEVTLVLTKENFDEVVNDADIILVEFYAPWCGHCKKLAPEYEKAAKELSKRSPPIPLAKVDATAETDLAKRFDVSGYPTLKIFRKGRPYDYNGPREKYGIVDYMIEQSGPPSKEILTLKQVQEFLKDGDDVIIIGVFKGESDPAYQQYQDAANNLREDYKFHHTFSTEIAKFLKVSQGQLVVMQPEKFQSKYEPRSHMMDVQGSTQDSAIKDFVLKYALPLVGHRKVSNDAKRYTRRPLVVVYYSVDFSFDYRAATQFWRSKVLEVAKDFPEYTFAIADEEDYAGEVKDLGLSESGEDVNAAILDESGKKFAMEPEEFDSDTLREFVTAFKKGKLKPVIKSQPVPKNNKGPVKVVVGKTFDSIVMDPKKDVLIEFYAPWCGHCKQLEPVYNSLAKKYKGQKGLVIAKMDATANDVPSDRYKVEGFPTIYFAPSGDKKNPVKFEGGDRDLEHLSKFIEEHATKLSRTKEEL
FBXO6 (human), sequence (Q9NRD1 whole entry): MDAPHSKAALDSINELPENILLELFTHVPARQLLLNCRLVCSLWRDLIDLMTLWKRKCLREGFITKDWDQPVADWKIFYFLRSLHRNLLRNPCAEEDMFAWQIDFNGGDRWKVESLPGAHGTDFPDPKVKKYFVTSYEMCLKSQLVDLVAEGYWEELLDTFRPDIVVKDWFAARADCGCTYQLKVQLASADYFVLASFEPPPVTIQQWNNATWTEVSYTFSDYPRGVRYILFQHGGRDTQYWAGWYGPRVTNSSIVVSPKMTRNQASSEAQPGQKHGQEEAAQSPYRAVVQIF
AIFM1 (human), sequence (O95831 55-613 limits assumed): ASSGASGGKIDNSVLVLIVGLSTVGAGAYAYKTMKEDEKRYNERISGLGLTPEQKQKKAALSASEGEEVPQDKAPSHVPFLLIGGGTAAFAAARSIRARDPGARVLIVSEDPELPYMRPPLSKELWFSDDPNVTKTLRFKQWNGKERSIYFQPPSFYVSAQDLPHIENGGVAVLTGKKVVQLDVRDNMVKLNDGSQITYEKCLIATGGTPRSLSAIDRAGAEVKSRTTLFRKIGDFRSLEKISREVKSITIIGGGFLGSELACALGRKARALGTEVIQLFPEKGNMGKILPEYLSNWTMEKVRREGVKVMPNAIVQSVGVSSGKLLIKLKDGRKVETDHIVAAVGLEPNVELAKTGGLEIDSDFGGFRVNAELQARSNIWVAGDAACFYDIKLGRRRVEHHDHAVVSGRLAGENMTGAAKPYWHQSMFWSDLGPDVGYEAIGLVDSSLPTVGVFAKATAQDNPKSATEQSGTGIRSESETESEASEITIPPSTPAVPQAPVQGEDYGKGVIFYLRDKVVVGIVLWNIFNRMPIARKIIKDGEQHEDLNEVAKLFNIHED
SRSF1, sequence (Q07955 2-248 limits assumed): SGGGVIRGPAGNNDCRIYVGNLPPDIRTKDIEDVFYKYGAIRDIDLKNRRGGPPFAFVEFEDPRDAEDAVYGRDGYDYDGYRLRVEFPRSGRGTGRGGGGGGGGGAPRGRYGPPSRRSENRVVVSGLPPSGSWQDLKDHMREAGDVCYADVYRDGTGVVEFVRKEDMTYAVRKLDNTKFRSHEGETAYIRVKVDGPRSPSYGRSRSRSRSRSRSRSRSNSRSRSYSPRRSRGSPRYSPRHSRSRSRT
TECR (human), sequence (Q9NZ01 whole entry): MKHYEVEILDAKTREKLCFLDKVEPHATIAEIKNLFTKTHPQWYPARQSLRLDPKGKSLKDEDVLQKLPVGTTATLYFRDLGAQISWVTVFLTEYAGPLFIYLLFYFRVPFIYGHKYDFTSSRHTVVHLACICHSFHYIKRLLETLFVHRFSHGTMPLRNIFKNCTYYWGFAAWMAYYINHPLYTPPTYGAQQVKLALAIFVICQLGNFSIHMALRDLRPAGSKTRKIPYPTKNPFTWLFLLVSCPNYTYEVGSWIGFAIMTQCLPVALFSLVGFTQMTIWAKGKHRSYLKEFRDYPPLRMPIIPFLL
HSP90AB1 (human), sequence (P08238 2-724 limits assumed): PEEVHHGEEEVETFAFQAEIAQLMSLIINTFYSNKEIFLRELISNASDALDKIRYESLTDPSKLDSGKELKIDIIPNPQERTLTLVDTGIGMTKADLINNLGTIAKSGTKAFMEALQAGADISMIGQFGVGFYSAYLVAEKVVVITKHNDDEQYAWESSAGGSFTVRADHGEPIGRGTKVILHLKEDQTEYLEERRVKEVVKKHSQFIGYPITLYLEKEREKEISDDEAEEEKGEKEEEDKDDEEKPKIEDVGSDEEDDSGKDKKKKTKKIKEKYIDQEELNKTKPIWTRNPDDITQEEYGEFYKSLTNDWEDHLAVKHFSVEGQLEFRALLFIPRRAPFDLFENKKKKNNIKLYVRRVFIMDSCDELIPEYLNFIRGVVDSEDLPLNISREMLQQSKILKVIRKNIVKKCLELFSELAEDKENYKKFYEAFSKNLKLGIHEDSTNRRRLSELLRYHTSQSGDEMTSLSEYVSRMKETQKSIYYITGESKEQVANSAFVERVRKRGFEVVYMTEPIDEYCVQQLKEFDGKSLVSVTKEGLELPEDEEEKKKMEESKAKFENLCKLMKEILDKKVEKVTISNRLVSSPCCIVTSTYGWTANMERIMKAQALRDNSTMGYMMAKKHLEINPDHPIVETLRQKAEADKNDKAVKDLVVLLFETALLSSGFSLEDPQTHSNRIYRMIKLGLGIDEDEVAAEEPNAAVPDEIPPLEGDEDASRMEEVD
DNAJA3 (human), sequence (Q96EY1 other isoform, or with tags, fused parts or gaps limits assumed): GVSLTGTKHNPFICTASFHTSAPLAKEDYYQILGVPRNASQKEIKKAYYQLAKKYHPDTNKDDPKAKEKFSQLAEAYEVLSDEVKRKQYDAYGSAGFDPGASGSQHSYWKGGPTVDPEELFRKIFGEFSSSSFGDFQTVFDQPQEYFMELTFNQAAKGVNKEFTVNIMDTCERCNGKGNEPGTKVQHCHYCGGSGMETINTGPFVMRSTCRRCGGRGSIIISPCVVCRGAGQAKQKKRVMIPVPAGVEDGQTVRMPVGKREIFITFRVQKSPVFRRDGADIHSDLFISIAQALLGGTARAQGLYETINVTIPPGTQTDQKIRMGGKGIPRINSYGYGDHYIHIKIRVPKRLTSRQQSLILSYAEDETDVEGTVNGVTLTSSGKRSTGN
RCN1 (human), sequence (Q15293 30-331 limits assumed): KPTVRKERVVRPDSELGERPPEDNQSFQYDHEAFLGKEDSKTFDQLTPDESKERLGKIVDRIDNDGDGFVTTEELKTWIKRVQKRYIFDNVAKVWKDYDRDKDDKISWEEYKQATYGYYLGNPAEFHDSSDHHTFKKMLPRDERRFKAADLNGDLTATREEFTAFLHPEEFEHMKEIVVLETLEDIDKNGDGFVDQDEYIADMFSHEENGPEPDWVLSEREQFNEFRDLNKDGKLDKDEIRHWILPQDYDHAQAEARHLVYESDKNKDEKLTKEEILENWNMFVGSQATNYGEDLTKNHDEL
ELOC (human), sequence (Q15369 whole entry): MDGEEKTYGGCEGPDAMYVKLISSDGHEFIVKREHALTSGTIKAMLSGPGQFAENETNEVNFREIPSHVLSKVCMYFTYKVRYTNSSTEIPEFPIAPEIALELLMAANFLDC
SFXN3 (human), sequence (Q9BWM7 whole entry): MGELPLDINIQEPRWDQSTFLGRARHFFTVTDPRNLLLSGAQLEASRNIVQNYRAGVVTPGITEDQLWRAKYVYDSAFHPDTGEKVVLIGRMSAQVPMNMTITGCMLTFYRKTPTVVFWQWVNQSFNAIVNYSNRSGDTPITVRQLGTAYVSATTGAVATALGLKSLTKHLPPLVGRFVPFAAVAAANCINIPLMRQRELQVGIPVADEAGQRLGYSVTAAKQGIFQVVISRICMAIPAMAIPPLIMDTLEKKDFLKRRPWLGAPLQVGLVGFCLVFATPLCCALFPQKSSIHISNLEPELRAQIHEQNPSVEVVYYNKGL

IgG control (Millipore Sigma 12-371) (antibody)
co-IP mass spectrometry count (RPS23): 6
co-IP mass spectrometry count (RPS8): 7
co-IP mass spectrometry count (SRSF3): 4
co-IP mass spectrometry count (DDX20): 0
co-IP mass spectrometry count (PBXIP1): 0
co-IP mass spectrometry count (SRSF1): 5
co-IP mass spectrometry count (DNAJA2): 0
co-IP mass spectrometry count (RPL3): 3

C-terminal FLAG tagged B3GNT2 (from UniProt Q9NY97 1-397) (enzyme)
co-IP mass spectrometry count (HSP90AB1 (human)): 11
co-IP mass spectrometry count (SFXN3 (human)): 2
co-IP mass spectrometry count (PDIA4 (human)): 9
co-IP mass spectrometry count (PXN (human)): 0
co-IP mass spectrometry count (TECR (human)): 9
co-IP mass spectrometry count (FBXO6 (human)): 5
co-IP mass spectrometry count (UBTF (human)): 2
co-IP mass spectrometry count (ABCD1 (human)): 2
co-IP mass spectrometry count (SLC25A22 (human)): 2
co-IP mass spectrometry count (HDGFL2 (human)): 2
co-IP mass spectrometry count (KPNB1 (human)): 7
co-IP mass spectrometry count (RRBP1 (human)): 16
co-IP mass spectrometry count (ERP44 (human)): 2
co-IP mass spectrometry count (RPL34 (human)): 2
co-IP mass spectrometry count (PSMB6 (human)): 3
co-IP mass spectrometry count (NTPCR (human)): 2
co-IP mass spectrometry count (DNAJA3 (human)): 2
co-IP mass spectrometry count (LARP4 (human)): 2
co-IP mass spectrometry count (RCN1 (human)): 9
co-IP mass spectrometry count (RPS6 (human)): 20
co-IP mass spectrometry count (PGAM5 (human)): 5
co-IP mass spectrometry count (EEF2 (human)): 5
co-IP mass spectrometry count (LDHA (human)): 4
co-IP mass spectrometry count (ACSL3 (human)): 5
co-IP mass spectrometry count (STAU1 (human)): 6
co-IP mass spectrometry count (AIFM1 (human)): 5
co-IP mass spectrometry count (IPO7 (human)): 9
co-IP mass spectrometry count (RPL15 (human)): 15
co-IP mass spectrometry count (ELOC (human)): 2
co-IP mass spectrometry count (ATAD3A (human)): 9
